Measured values as given in US20190389910A1 (ORUM THERAPEUTICS, published 2019).
Residue numbers refer to the chain shown, from its start. Each block holds one binder with its values, some of them ahead of it.

Tests used:
[1] = molecular target: human recombinant integrin αvβ5 (αv extracellular domain-acidic leucine zipper-His×6 with β5 extracellular domain-basic leucine zipper) (human) (UniProt P06756); assay: BLI (Octet), antibody captured on anti-human IgG Fc (AHC) biosensor, integrin αvβ5 3.1-100 nM as analyte, divalent cations
[2] = molecular target: human recombinant integrin αvβ6 (αv extracellular domain-acidic leucine zipper-His×6 with β6 extracellular domain-basic leucine zipper) (human) (UniProt P06756); assay: BLI (Octet), antibody captured on anti-human IgG Fc (AHC) biosensor, integrin αvβ6 3.1-100 nM as analyte, divalent cations
[3] = molecular target: human recombinant EpCAM antigen (extracellular domain, residues 1 to 265, fused with 6×His tag and Avi-tag) (human) (UniProt P16422); assay: SPR (Biacore 2000), EpCAM on CM5 chip (about 211 RU), antibody 6.25-100 nM as analyte
[4] = molecular target: human recombinant EpCAM antigen (extracellular domain, residues 1 to 265, fused with 6×His tag and Avi-tag) (human) (UniProt P16422); assay: SPR (Biacore 2000), EpCAM on CM5 chip (about 367 RU), antibody 6.25-100 nM as analyte
[5] = molecular target: heparan sulfate proteoglycan (HSPG) expressed on HeLa cells; assay: cell-based or functional assay

Sequence of human recombinant EpCAM antigen (extracellular domain, residues 1 to 265, fused with 6×His tag and Avi-tag) (human) (P16422 24-265 limits assumed, form in doubt): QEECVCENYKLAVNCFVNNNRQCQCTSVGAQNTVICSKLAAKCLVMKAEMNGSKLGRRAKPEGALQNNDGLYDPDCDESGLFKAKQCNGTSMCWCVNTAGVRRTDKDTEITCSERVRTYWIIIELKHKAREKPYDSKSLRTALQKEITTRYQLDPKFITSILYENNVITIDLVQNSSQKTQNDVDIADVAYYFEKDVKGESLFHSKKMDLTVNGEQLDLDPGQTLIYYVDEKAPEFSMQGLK
Sequence of human recombinant integrin αvβ6 (αv extracellular domain-acidic leucine zipper-His×6 with β6 extracellular domain-basic leucine zipper) (human) (P06756 other isoform, or with tags, fused parts or gaps, chain 1 of 2): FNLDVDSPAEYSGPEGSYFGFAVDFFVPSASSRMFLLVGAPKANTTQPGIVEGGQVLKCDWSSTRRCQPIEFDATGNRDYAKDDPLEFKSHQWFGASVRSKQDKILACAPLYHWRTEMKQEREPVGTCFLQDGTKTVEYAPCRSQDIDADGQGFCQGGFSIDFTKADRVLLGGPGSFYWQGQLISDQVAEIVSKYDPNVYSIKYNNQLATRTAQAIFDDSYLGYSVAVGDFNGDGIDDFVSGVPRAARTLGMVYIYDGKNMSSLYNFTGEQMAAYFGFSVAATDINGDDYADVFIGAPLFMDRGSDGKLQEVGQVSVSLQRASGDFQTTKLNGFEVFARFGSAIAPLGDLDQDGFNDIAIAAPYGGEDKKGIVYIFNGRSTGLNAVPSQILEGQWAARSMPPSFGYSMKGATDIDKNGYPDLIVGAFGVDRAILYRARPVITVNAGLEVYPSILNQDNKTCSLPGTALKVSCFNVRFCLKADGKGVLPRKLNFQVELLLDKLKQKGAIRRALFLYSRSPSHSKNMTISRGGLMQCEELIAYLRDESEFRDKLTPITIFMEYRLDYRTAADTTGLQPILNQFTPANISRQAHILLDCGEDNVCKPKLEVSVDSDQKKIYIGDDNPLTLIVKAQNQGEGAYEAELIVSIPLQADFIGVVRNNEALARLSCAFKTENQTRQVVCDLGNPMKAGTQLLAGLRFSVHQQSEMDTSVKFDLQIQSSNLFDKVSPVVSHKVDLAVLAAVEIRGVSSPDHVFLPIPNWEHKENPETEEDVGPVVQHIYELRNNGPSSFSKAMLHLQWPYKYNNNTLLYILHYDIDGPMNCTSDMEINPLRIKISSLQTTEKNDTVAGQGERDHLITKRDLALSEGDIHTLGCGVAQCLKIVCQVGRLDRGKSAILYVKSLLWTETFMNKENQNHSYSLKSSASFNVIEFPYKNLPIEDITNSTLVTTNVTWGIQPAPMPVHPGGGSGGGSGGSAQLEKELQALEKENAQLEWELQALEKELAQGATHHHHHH
Sequence of human recombinant integrin αvβ6 (αv extracellular domain-acidic leucine zipper-His×6 with β6 extracellular domain-basic leucine zipper) (human) (chain, as listed by the source, chain 2 of 2): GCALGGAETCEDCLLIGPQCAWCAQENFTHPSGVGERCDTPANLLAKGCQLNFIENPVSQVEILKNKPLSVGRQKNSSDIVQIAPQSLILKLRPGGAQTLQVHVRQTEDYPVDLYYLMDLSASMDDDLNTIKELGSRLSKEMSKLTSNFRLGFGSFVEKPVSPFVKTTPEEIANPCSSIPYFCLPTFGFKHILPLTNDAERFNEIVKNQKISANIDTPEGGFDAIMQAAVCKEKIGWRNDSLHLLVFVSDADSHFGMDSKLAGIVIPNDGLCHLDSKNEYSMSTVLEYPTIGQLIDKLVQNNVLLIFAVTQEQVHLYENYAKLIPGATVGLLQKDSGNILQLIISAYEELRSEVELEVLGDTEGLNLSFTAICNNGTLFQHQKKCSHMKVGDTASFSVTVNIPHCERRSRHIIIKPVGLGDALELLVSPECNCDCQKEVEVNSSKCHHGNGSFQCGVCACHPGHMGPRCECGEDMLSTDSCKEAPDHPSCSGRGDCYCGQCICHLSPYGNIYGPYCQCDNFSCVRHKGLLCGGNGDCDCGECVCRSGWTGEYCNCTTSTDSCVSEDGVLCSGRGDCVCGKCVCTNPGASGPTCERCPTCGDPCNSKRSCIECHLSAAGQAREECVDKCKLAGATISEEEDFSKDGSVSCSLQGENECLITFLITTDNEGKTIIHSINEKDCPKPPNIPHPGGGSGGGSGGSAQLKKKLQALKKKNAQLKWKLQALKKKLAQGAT
Sequence of human recombinant integrin αvβ5 (αv extracellular domain-acidic leucine zipper-His×6 with β5 extracellular domain-basic leucine zipper) (human) (P06756 other isoform, or with tags, fused parts or gaps, chain 1 of 2): as the sequence (P06756 other isoform, or with tags, fused parts or gaps, chain 1 of 2) above
Sequence of human recombinant integrin αvβ5 (αv extracellular domain-acidic leucine zipper-His×6 with β5 extracellular domain-basic leucine zipper) (human) (chain, as listed by the source, chain 2 of 2): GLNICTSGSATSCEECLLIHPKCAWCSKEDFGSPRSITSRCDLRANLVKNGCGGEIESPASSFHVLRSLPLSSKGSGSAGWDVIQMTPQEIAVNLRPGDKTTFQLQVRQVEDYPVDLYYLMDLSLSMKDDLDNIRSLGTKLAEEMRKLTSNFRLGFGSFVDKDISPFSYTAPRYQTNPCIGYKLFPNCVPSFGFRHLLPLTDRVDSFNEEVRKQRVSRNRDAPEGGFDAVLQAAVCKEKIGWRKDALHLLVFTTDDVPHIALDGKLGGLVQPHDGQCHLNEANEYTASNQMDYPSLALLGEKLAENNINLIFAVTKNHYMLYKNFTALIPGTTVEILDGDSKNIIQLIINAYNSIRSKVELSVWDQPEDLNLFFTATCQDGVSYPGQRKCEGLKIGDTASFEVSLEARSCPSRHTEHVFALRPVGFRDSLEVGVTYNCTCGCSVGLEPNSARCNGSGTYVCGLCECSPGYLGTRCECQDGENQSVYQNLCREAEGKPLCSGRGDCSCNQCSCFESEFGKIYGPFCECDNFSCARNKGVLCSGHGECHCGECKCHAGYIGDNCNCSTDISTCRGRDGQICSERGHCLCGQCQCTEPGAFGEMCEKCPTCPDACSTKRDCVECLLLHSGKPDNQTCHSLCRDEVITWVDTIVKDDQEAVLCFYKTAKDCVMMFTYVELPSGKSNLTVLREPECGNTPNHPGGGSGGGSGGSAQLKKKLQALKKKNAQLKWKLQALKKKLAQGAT

B1: 5#4-Ras03 (antibody, part only; not given: RT22 heavy chain, constant regions, V domains shown, not shown: another chain or arm of the molecule; a dimerising Fc or GST; large carriers; small tags and cut ends)
VL: EHATNCTTRGDTFVVLCGLGMGSSSNDIQMTQSPSSLSASVGDRVTITCKSSQSLLNSRDGKNYLAWYQQKPGKAPKLLIYWASTRESGVPSRFSGSGSGTDFTLTISSLQPEDFATYFCQQYWYWMYTFGQGTKVEIK
modifications: chain 1: disulfide bond Cys6-Cys17 closes the 5#4 cyclic peptide
Kd [1]: 7.01 nM | koff [1]: 0.000158 s⁻¹ | kon [1]: 22500 M⁻¹ s⁻¹

B2: 6#8-Ras03 (antibody, part only; not given: RT22 heavy chain, light constant, V domains shown, not shown: another chain or arm of the molecule; a dimerising Fc or GST)
VL: FPNNQCQHRGDLFALCADMGSSSNDIQMTQSPSSLSASVGDRVTITCKSSQSLLNSRDGKNYLAWYQQKPGKAPKLLIYWASTRESGVPSRFSGSGSGTDFTLTISSLQPEDFATYFCQQYWYWMYTFGQGTKVEIK
modifications: chain 1: disulfide bond Cys6-Cys16 closes the cyclic peptide
Kd [2]: 0.952 nM | koff [2]: 0.000175 s⁻¹ | kon [2]: 184000 M⁻¹ s⁻¹

B3: 5#3-Ras03 (antibody, part only; not given: RT22 heavy chain, constant regions, V domains shown, not shown: another chain or arm of the molecule; a dimerising Fc or GST; large carriers; small tags and cut ends)
VL: SRDETCTPRGDTFAICMGSSSNDIQMTQSPSSLSASVGDRVTITCKSSQSLLNSRDGKNYLAWYQQKPGKAPKLLIYWASTRESGVPSRFSGSGSGTDFTLTISSLQPEDFATYFCQQYWYWMYTFGQGTKVEIK
modifications: chain 1: disulfide bond Cys6-Cys16 closes the 5#3 cyclic peptide
Kd [1]: 4.88 nM | koff [1]: 0.000163 s⁻¹ | kon [1]: 33300 M⁻¹ s⁻¹

B5: ep6-Ras03 (antibody, part only; not given: RT22 heavy chain, light constant, V domains shown, not shown: another chain or arm of the molecule; a dimerising Fc or GST)
VL: NNLRCIGNICWSMGSSSNDIQMTQSPSSLSASVGDRVTITCKSSQSLLNSRDGKNYLAWYQQKPGKAPKLLIYWASTRESGVPSRFSGSGSGTDFTLTISSLQPEDFATYFCQQYWYWMYTFGQGTKVEIK
modifications: chain 1: disulfide bond Cys5-Cys10 closes the Ep6 cyclic peptide
Kd [4]: 1.86 nM | kon [4]: 3.02e+06 M⁻¹ s⁻¹

B9: ep7-Ras03 (antibody, part only; not given: RT22 heavy chain, light constant, V domains shown, not shown: another chain or arm of the molecule; a dimerising Fc or GST)
VL: B5 VL with N1D
modifications: chain 1: disulfide bond Cys5-Cys10 closes the Ep7 cyclic peptide
Kd [4]: 4.35 nM | kon [4]: 1.36e+06 M⁻¹ s⁻¹

B11: ep4-Ras03 (antibody, part only; not given: RT22 heavy chain, light constant, V domains shown, not shown: another chain or arm of the molecule; a dimerising Fc or GST)
VL: B5 VL with N1E, N2H, R4H, I6L, N8S, I9L
modifications: chain 1: disulfide bond Cys5-Cys10 closes the cyclic peptide
Kd [4]: 12.4 nM | koff [4]: 0.00905 s⁻¹ | kon [4]: 728000 M⁻¹ s⁻¹

B13: ep3-Ras03 (antibody, part only; not given: RT22 heavy chain, light constant, V domains shown, not shown: another chain or arm of the molecule; a dimerising Fc or GST)
VL: B5 VL with N1E, R4Q, I9L
modifications: chain 1: disulfide bond Cys5-Cys10 closes the cyclic peptide
Kd [4]: 2.11 nM | koff [4]: 0.0036 s⁻¹ | kon [4]: 1.7e+06 M⁻¹ s⁻¹

B14: 6#4-Ras03 (antibody, part only; not given: RT22 heavy chain, light constant, V domains shown, not shown: another chain or arm of the molecule; a dimerising Fc or GST)
VL: ESFRPCQYRGDLFVLCFPSDMGSSSNDIQMTQSPSSLSASVGDRVTITCKSSQSLLNSRDGKNYLAWYQQKPGKAPKLLIYWASTRESGVPSRFSGSGSGTDFTLTISSLQPEDFATYFCQQYWYWMYTFGQGTKVEIK
modifications: chain 1: disulfide bond Cys6-Cys16 closes the cyclic peptide
Kd [2]: 1.52 nM | koff [2]: 0.000265 s⁻¹ | kon [2]: 175000 M⁻¹ s⁻¹

B16: TMab4-WYW (antibody, human IgG1, V domains shown)
VH: EVQLVESGGGLVQPGGSLRLSCAASGYTFTSYVMHWVRQAPGKGLEWVSAINPYNDGNYYADSVKGRFTISRDNSRKTLYLQMNSLRAEDTAVYYCARGAYKRGYAMDYWGQGTTVTVSS
VL: DLVMTQSPSSLSASVGDRVTITCKSSQSLFNSRTRKNYLAWYQQKPGKAPKLLIYWASTRESGVPSRFSGSGSGTDFTLTISSLQPEDFATYYCQQYWYWMYTFGQGTKVEIKR
fluorescence intensity of antibody located in the cytoplasm (confocal microscopy, HeLa cells, 1 µM, 6 h) [5]: 100%

B17: CT03a (antibody, V domains shown)
VH: B16 VH
VL: B16 VL with F30L, Y93F
fluorescence intensity of antibody located in the cytoplasm (confocal microscopy, HeLa cells, 1 µM, 6 h) [5]: 40.1%

B18: CT03b (antibody, V domains shown)
VH: B16 VH
VL: B16 VL with F30L, T34D, R35G, K36N, N37T, A57L, T59Y, E61A, Y93F
fluorescence intensity of antibody located in the cytoplasm (confocal microscopy, HeLa cells, 1 µM, 6 h) [5]: 12.4%

B19: CT03d (antibody, V domains shown)
VH: B16 VH
VL: B16 VL with F30L, R35G, N37T, Y93F
fluorescence intensity of antibody located in the cytoplasm (confocal microscopy, HeLa cells, 1 µM, 6 h) [5]: 26.3%

B20: CT03c (antibody, V domains shown)
VH: B16 VH
VL: B16 VL with F30L, R33D, T34D, K36N, N37T, A57L, T59Y, E61A, Y93F
fluorescence intensity of antibody located in the cytoplasm (confocal microscopy, HeLa cells, 1 µM, 6 h) [5]: 31.8%

B21: CT03e (antibody, V domains shown)
VH: B16 VH
VL: B16 VL with F30L, T34D, R35G, Y93F
fluorescence intensity of antibody located in the cytoplasm (confocal microscopy, HeLa cells, 1 µM, 6 h) [5]: 19.6%

B22: 5#2-Ras03 (antibody, part only; not given: RT22 heavy chain, constant regions, V domains shown, not shown: another chain or arm of the molecule; a dimerising Fc or GST; large carriers; small tags and cut ends)
VL: ASYNDCQSRGDTFCVADMGSSSNDIQMTQSPSSLSASVGDRVTITCKSSQSLLNSRDGKNYLAWYQQKPGKAPKLLIYWASTRESGVPSRFSGSGSGTDFTLTISSLQPEDFATYFCQQYWYWMYTFGQGTKVEIK
modifications: chain 1: disulfide bond Cys6-Cys14 closes the 5#2 cyclic peptide
Kd [1]: 2.63 nM | koff [1]: 0.00012 s⁻¹ | kon [1]: 45500 M⁻¹ s⁻¹

B23: SFITGv6-Ras03 (antibody, part only; not given: RT22 heavy chain, constant regions, V domains shown, not shown: another chain or arm of the molecule; a dimerising Fc or GST; large carriers; small tags and cut ends)
VL: GRCTFRGDLMQLCYPDMGSSSNDIQMTQSPSSLSASVGDRVTITCKSSQSLLNSRDGKNYLAWYQQKPGKAPKLLIYWASTRESGVPSRFSGSGSGTDFTLTISSLQPEDFATYFCQQYWYWMYTFGQGTKVEIK
modifications: chain 1: disulfide bond Cys3-Cys13 closes the SFITGv6 cyclic peptide
Kd [2]: 0.457 nM | koff [2]: 0.000128 s⁻¹ | kon [2]: 279000 M⁻¹ s⁻¹

B24: 6#2-Ras03 (antibody, part only; not given: RT22 heavy chain, constant regions, V domains shown, not shown: another chain or arm of the molecule; a dimerising Fc or GST; large carriers; small tags and cut ends)
VL: HVEFPCTRRGDLFVLCEGSMGSSSNDIQMTQSPSSLSASVGDRVTITCKSSQSLLNSRDGKNYLAWYQQKPGKAPKLLIYWASTRESGVPSRFSGSGSGTDFTLTISSLQPEDFATYFCQQYWYWMYTFGQGTKVEIK
modifications: chain 1: disulfide bond Cys6-Cys16 closes the 6#2 cyclic peptide
Kd [2]: 0.722 nM | koff [2]: 0.000153 s⁻¹ | kon [2]: 212000 M⁻¹ s⁻¹

Continued, values first:

Kd [3]: 3.04 nM | koff [3]: 0.00224 s⁻¹ | kon [3]: 737000 M⁻¹ s⁻¹
B4: epRas03 (4-8) (antibody, part only; not given: RT22 heavy chain, light constant, V domains shown, not shown: another chain or arm of the molecule; a dimerising Fc or GST)
VL: B5 VL with N1R, R4L, I9L, S12P
modifications: chain 1: disulfide bond Cys5-Cys10 closes the cyclic peptide

Kd [3]: 0.313 nM | koff [3]: 0.00168 s⁻¹ | kon [3]: 5.38e+06 M⁻¹ s⁻¹
B6: epRas03 (4-19) (antibody, part only; not given: RT22 heavy chain, light constant, V domains shown, not shown: another chain or arm of the molecule; a dimerising Fc or GST)
VL: B5 VL with N1R
modifications: chain 1: disulfide bond Cys5-Cys10 closes the cyclic peptide

Kd [3]: 9.94 nM | koff [3]: 0.00421 s⁻¹ | kon [3]: 424000 M⁻¹ s⁻¹
B7: epRas03 (4-27) (antibody, part only; not given: RT22 heavy chain, light constant, V domains shown, not shown: another chain or arm of the molecule; a dimerising Fc or GST)
VL: B5 VL with N1R, N2H, R4W, I6L, N8R, I9L, S12P
modifications: chain 1: disulfide bond Cys5-Cys10 closes the cyclic peptide

Kd [3]: 0.185 nM | koff [3]: 0.00105 s⁻¹ | kon [3]: 5.69e+06 M⁻¹ s⁻¹
B8: epRas03 (4-13) (antibody, part only; not given: RT22 heavy chain, light constant, V domains shown, not shown: another chain or arm of the molecule; a dimerising Fc or GST)
VL: B5 VL with N1R, R4Q, G7R
modifications: chain 1: disulfide bond Cys5-Cys10 closes the cyclic peptide

Kd [3]: 183 nM | koff [3]: 0.00205 s⁻¹ | kon [3]: 11200 M⁻¹ s⁻¹
B10: epRas03 (4-14) (antibody, part only; not given: RT22 heavy chain, light constant, V domains shown, not shown: another chain or arm of the molecule; a dimerising Fc or GST)
VL: B5 VL with N1R, R4H, I9L, S12P
modifications: chain 1: disulfide bond Cys5-Cys10 closes the cyclic peptide

Kd [3]: 17.7 nM | koff [3]: 0.00117 s⁻¹ | kon [3]: 66400 M⁻¹ s⁻¹
B12: epRas03 (4-12) (antibody, part only; not given: RT22 heavy chain, light constant, V domains shown, not shown: another chain or arm of the molecule; a dimerising Fc or GST)
VL: B5 VL with N1R, R4L, I6L, G7R, N8R, S12P
modifications: chain 1: disulfide bond Cys5-Cys10 closes the cyclic peptide

Kd [2]: 12.1 nM | koff [2]: 0.00703 s⁻¹ | kon [2]: 583000 M⁻¹ s⁻¹ | Kd [1]: 2.06 nM | koff [1]: 0.000166 s⁻¹ | kon [1]: 80600 M⁻¹ s⁻¹
B15: in4-Ras03 (antibody, part only; not given: RT22 heavy chain, light constant, V domains shown, not shown: another chain or arm of the molecule; a dimerising Fc or GST)
VL: DGVRQCRGDCFDGPLMGSSSNDIQMTQSPSSLSASVGDRVTITCKSSQSLLNSRDGKNYLAWYQQKPGKAPKLLIYWASTRESGVPSRFSGSGSGTDFTLTISSLQPEDFATYFCQQYWYWMYTFGQGTKVEIK
modifications: chain 1: disulfide bond Cys6-Cys10 closes the in4 cyclic peptide
